Assay results reported in EP4682166A1 (Guangzhou Enmai Biotechnology Co., Ltd, dated 2026).

T1: human NMI (N-myc Interacting protein), recombinant protein (human, UniProt Q13287 1-307, limits assumed)
T1 construct: Gene ID: 9111; also called hNMI; antigen
T1 sequence (looked up): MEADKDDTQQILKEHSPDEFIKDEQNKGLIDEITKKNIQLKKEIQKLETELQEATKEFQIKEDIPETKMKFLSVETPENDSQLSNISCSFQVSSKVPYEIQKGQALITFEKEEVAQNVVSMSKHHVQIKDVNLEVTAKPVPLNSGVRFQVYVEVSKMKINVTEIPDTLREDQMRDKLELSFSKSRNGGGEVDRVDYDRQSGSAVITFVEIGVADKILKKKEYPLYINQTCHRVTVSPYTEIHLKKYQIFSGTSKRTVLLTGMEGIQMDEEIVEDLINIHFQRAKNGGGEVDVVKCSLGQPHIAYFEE

T2: NMI-flag overexpressed protein (293T cells transfected with the hNMI-flag plasmid) (human) (UniProt Q13287)
T2 sequence (looked up): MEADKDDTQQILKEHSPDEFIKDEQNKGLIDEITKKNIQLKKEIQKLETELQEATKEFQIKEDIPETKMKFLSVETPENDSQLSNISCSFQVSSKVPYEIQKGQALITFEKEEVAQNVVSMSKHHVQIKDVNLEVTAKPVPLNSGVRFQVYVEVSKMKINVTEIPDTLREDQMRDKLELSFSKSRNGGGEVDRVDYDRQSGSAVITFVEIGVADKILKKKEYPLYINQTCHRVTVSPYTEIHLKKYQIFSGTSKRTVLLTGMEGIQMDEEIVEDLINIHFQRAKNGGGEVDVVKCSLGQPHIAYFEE

T3: human NMI (N-myc Interacting protein) (human) (UniProt Q13287)
T3 sequence (looked up): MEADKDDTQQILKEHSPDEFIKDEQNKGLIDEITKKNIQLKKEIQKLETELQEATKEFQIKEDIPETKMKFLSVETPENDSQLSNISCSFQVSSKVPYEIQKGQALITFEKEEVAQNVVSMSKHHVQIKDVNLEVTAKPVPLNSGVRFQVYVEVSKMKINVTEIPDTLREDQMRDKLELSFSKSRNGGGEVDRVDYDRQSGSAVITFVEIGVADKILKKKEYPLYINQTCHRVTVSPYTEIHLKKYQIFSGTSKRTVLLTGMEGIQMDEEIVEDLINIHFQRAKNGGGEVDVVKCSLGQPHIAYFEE


Key:
[1] = biological target: T1, human NMI (N-myc Interacting protein), …; experiment: sandwich ELISA; detection 94C4-1-biotin 1µg/mL; hNMI 781.250 pg/mL
[2] = biological target: T1, human NMI (N-myc Interacting protein), …; experiment: sandwich ELISA; detection 94C4-1-biotin 0.5µg/mL; hNMI 195.313 pg/mL
[3] = biological target: T1, human NMI (N-myc Interacting protein), …; experiment: sandwich ELISA; detection 94C4-1-biotin 1µg/mL; hNMI 50,000.000 pg/mL
[4] = biological target: T1, human NMI (N-myc Interacting protein), …; experiment: indirect ELISA, coated hNMI
[5] = biological target: T1, human NMI (N-myc Interacting protein), …; experiment: sandwich ELISA; detection 94C4-1-biotin 1µg/mL; hNMI 97.656 pg/mL
[6] = biological target: T1, human NMI (N-myc Interacting protein), …; experiment: sandwich ELISA; detection 39B4-1-biotin; hNMI 100.000 ng/mL
[7] = biological target: T1, human NMI (N-myc Interacting protein), …; experiment: sandwich ELISA; detection 94C4-1-biotin 0.5µg/mL; hNMI 12,500.000 pg/mL
[8] = biological target: T2, NMI-flag overexpressed protein (293T cells transfected with the hNMI-flag plasmid) (human); experiment: sandwich ELISA; detection 94C4-1-biotin; cell lysates of NMI-flag 293T, replicate 2
[9] = biological target: T1, human NMI (N-myc Interacting protein), …; experiment: sandwich ELISA; detection 94C4-1-biotin 1µg/mL; hNMI 195.313 pg/mL
[10] = biological target: T1, human NMI (N-myc Interacting protein), …; experiment: sandwich ELISA; detection 94C4-1-biotin 0.5µg/mL; hNMI 6,250.000 pg/mL
[11] = biological target: T1, human NMI (N-myc Interacting protein), …; experiment: sandwich ELISA; detection 94C4-1-biotin 1µg/mL; hNMI 390.625 pg/mL
[12] = biological target: T3, human NMI (N-myc Interacting protein) (human); experiment: magnetic-bead chemiluminescent sandwich; capture 98G10 beads, detection acridinium-B-8 (2.0 mg B-8 labelled); hNMI 100 pg/mL
[13] = biological target: T3, human NMI (N-myc Interacting protein) (human); experiment: magnetic-bead chemiluminescent sandwich; capture 98G10 beads, detection acridinium-B-8 (1.0 mg B-8 labelled); hNMI 50 pg/mL
[14] = biological target: T3, human NMI (N-myc Interacting protein) (human); experiment: magnetic-bead chemiluminescent sandwich; capture 98G10 beads, detection acridinium-B-8 (1.0 mg B-8 labelled); hNMI 1000 pg/mL
[15] = biological target: T3, human NMI (N-myc Interacting protein) (human); experiment: magnetic-bead chemiluminescent sandwich; capture 98G10 beads (0.5 mg 98G10), detection acridinium-B-8; hNMI 2000 pg/ml
[16] = biological target: T3, human NMI (N-myc Interacting protein) (human); experiment: magnetic-bead chemiluminescent sandwich, kit of Example 8-1; capture 98G10 beads, detection acridinium-B-8; series 2, hNMI 7500 pg/mL
[17] = biological target: T3, human NMI (N-myc Interacting protein) (human); experiment: magnetic-bead chemiluminescent sandwich, kit of Example 8-1; capture 98G10 beads, detection acridinium-B-8; series 2, hNMI 1800 pg/mL
[18] = biological target: T3, human NMI (N-myc Interacting protein) (human); experiment: magnetic-bead chemiluminescent sandwich, kit of Example 8-1; capture 98G10 beads, detection acridinium-B-8; series 1, hNMI 4000 pg/mL
[19] = biological target: T3, human NMI (N-myc Interacting protein) (human); experiment: magnetic-bead chemiluminescent sandwich; capture 98G10 beads (0.5 mg 98G10), detection acridinium-B-8; hNMI 1000 pg/ml
[20] = biological target: T3, human NMI (N-myc Interacting protein) (human); experiment: magnetic-bead chemiluminescent sandwich; capture 98G10 beads (1.0 mg 98G10), detection acridinium-B-8; hNMI 400 pg/ml
[21] = biological target: T3, human NMI (N-myc Interacting protein) (human); experiment: magnetic-bead chemiluminescent sandwich, kit of Example 8-1; capture 98G10 beads, detection acridinium-B-8; series 2, hNMI 3600 pg/mL
[22] = biological target: T3, human NMI (N-myc Interacting protein) (human); experiment: magnetic-bead chemiluminescent sandwich, kit of Example 8-1; capture 98G10 beads, detection acridinium-B-8; series 2, hNMI 10000 pg/mL
[23] = biological target: T3, human NMI (N-myc Interacting protein) (human); experiment: magnetic-bead chemiluminescent sandwich; capture 98G10 beads, detection acridinium-B-8 (2.0 mg B-8 labelled); hNMI 2000 pg/mL
[24] = biological target: T3, human NMI (N-myc Interacting protein) (human); experiment: magnetic-bead chemiluminescent sandwich, kit of Example 8-1; capture 98G10 beads, detection acridinium-B-8; series 1, hNMI 8000 pg/mL

Binder | OD450 [1] | OD450 [2] | OD450 [3] | EC50 [4] | OD450 [5] | OD450 [6] | OD450 [7] | OD450 [9] | OD450 [10] | OD450 [11] | other results
monoclonal antibody B-8 (antibody, V domains shown, Rabbit monoclonal antibody; also called B8-1) VH: QSLEESGGDLVKPGASLTLTCTASGFSFSSSYYMCWVRQAPGKGLEWIACIYAGSSGSTYYASWAKGRFTISKTSSTTVTLQMTSLTAADTATYFCAREYSYDDYGDFWGFNLWGPGTLVTVSS VL: ALVMTQTPSSVSAAVGGTVTINCQASQNIYTNLAWYQQKPGQPPKLLIYGASNLESGVPSRFKGSGSGTEYTLTISDLECDDAATYYCQSSLYSRIADRANAFGGGTEVVVK | 0.288 OD450 | 0.134 OD450 | 3.11 OD450 | 0.0444 µg/mL | 0.15 OD450 | 3.07 OD450 | 2.03 OD450 | 0.173 OD450 | 1.29 OD450 | 0.206 OD450 | OD450 [8]: 2.9 OD450
acridinium ester-labeled monoclonal antibody B-8 (antibody, V domains shown, acridinium ester label on the antibody, site not stated) VH: QSLEESGGDLVKPGASLTLTCTASGFSFSSSYYMCWVRQAPGKGLEWIACIYAGSSGSTYYASWAKGRFTISKTSSTTVTLQMTSLTAADTATYFCAREYSYDDYGDFWGFNLWGPGTLVTVSS VL: ALVMTQTPSSVSAAVGGTVTINCQASQNIYTNLAWYQQKPGQPPKLLIYGASNLESGVPSRFKGSGSGTEYTLTISDLECDDAATYYCQSSLYSRIADRANAFGGGTEVVVK |  |  |  |  |  |  |  |  |  |  | Signal value [12]: 11900; Signal value [13]: 4560; Signal value [14]: 97600; Signal value [15]: 204000; Signal value [16]: 900000; Signal value [17]: 181000; Signal value [18]: 258000; Signal value [19]: 97600; Signal value [20]: 86800; Signal value [21]: 408000; Signal value [22]: 1.19e+06; Signal value [23]: 234000; Signal value [24]: 587000
monoclonal antibody 240B10-1 (antibody, V domains shown, Rabbit monoclonal antibody) VH: QSLEESGGRLVTPGGSLTLTCTVSGIDLSSYTMGWVRQAPGKGLEYIGIISGGGRTYYASWAKGRFTISKTSSTTVDLKVTSLTTEDTATYFCARIYTLWGQGTLVTVSS VL: QVLTQTLASVSAAVGGTVTINCQSSQSVYNNDYLAWFQQKSGQPPKQLIHSASKLASGVPSRFKGSGSGTQFTLTINDVQCDDAATYYCLGGYDCYSADCNVFGGGTEVVVK | 0.351 OD450 | 0.187 OD450 | 3.1 OD450 | 0.0477 µg/mL | 0.185 OD450 | 3.12 OD450 | 2.32 OD450 | 0.212 OD450 | 1.58 OD450 | 0.255 OD450 | 
